These results are taken from FireProtDB (doi:10.1021/ja068849o).

For this data set the following is noted: Escherichia coli (strain K12); pH 9.2; 37 °C; Urea; Fluorescence; Glycine 10 mM; reversible: Yes; whole UniProt chain shown.

B1: Outer membrane protein A wild type, P0A910 (protein)
chain: MKKTAIAIAVALAGFATVAQAAPKDNTWYTGAKLGWSQYHDTGFINNNGPTHENQLGAGAFGGYQVNPYVGFEMGYDWLGRMPYKGSVENGAYKAQGVQLTAKLGYPITDDLDIYTRLGGMVWRADTKSNVYGKNHDTGVSPVFAGGVEYAITPEIATRLEYQWTNNIGDAHTIGTRPDNGMLSLGVSYRFGQGEAAPVVAPAPAPAPEVQTKHFTLKSDVLFNFNKATLKPEGQAALDQLYSQLSNLDPKDGSVVVLGYTDRIGSDAYNQGLSERRAQSVVDYLISKGIPADKISARGMGESNPVTGNTCDNVKQRAALIDCLAPDRRVEIEVKGIKDVVTQPQA
In the case of B1, the denaturant m value was determined as 2.2 kcal/mol/M, the “denaturant midpoint (higher = more stable)” value was 4.2 M and the unfolding free energy came out at 9.3 kcal/mol.
